Experimental data: US20070231333A1, “ANTI-5T4 ANTIBODIES AND USES THEREOF” (Wyeth, priority 2006, published 2007)

T1: human 5T4 antigen (Homo sapiens, UniProt Q13641)
T1 sequence (Q13641 32-420): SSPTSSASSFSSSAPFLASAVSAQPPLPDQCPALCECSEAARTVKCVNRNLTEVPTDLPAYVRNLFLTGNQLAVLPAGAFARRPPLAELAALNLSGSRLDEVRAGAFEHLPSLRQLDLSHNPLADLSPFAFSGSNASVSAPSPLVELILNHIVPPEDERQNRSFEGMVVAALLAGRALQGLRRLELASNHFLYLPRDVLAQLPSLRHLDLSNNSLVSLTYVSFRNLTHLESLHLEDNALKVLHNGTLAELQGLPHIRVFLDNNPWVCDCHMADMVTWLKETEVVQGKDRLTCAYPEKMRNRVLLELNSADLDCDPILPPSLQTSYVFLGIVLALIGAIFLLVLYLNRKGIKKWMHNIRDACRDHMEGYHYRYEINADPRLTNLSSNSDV

T2: mouse 5T4 ectodomain/Fc fusion protein (Mus musculus, UniProt Q9Z0L0)
T2 construct: prepared using mouse 5T4 (amino acids 1-361); human IgG1 Fc; made in house; host or cells: COS-1 cells (transient transfection)
T2 sequence (Q9Z0L0 32-361): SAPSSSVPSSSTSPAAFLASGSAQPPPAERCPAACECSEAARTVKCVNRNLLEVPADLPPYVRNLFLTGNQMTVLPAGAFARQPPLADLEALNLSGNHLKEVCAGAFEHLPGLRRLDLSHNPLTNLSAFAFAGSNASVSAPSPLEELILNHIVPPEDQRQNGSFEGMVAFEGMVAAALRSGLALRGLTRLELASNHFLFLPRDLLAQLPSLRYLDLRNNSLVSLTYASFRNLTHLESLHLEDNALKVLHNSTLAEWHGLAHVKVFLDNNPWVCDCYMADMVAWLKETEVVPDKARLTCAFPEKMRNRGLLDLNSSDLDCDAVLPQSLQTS

T3: rat 5T4 ectodomain/Fc fusion protein (Rattus norvegicus, UniProt Q5PQV5)
T3 construct: rat 5T4 (amino acids 1-361); human IgG1 Fc; made in house; host or cells: COS-1 cells (transient transfection)
T3 sequence (Q5PQV5 32-361): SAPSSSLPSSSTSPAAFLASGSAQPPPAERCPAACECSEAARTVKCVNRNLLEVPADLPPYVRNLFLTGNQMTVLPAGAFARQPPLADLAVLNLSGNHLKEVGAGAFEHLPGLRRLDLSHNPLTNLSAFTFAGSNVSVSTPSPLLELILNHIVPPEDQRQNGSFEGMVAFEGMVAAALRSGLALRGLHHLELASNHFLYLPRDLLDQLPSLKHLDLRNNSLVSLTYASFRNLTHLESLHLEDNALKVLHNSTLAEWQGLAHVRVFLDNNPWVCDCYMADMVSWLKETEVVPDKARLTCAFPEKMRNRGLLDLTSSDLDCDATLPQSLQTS


Tests used:
human 5T4 antigen [1] = molecular target: T1, human 5T4 antigen; assay: BIACORE analysis of antibody binding to human 5T4 antigen immobilized on a CM5 chip; settings: chimeric and humanized antibodies, Table 12
Procedure: To assess the binding specificity and affinity of the A1, A2, and A3 antibodies, BIACORE® analysis was performed using human 5T4 antigen immobilized on a CM5 chip. BIACORE® technology utilizes changes in the refractive index at the surface layer upon binding of the antibody to the 5T4 antigen immobilized on the layer. Binding is detected by surface plasmon resonance (SPR) of laser light refracting from the surface. Analysis of the signal kinetics on rate and off rate allows discrimination between non-specific and specific interactions. The H8 anti-5T4 antibody was used as a control. H8 is a hybridoma-generated monoclonal mouse IgG1 antibody described in PCT International Publication No. WO 98/55607 and in Forsberg et al. (1997) J. Biol. Chem. 272(19):[…].
To assess the binding specificity and affinity of the chimeric and humanized H8, A1, A2, and A3 antibodies, BIACORE® analysis was performed using human 5T4 antigen immobilized on a CM5 chip. See Example 2.

human 5T4 antigen [2] = molecular target: T1, human 5T4 antigen; assay: BIACORE competition assay: second antibody after saturation with first antibody; assay type: binding
Procedure: Epitope mapping of the H8, A1, A2, and A3 antibodies was also performed using BIACORE® using a CM5 chip with bound human 5T4 antigen. The chip was saturated with H8, A1, A2, or A3 antibody, and a first response was measured. The chip was then saturated with a second antibody from among the H8, A1, A2, and A3 antibodies, and a second response was measured. For multiple experiments, the chip was regenerated by dissociation of the bound antibodies in 10 mM glycine, pH 1.5, followed by a buffer wash. The percentages shown are the response units measured upon binding by a second antibody directly to the CM5 chip divided by the response units measured upon binding of the second antibody to a CM5 chip saturated with a first antibody.
The epitopes bound by the H8 and A3 antibodies are sterically close to each other such that the rate of association with antigen is decreased when binding of H8 is assayed in the presence of A3, and vice versa. Similar results were obtained using the chimeric and humanized H8, A1, A2, and A3 antibodies, which were prepared as described in Example 7 herein below.

[3] = molecular target: T2, mouse 5T4 ectodomain/Fc fusion protein; assay: Cross-species reactivity ELISA, 5T4 ectodomain/Fc fusion proteins; assay type: binding; design: key: +: binding; −: no binding; +/−: partial binding
Procedure: (§1) The cross-species reactivity of anti-5T4 antibodies disclosed herein was assayed to determine relevant species for in vivo efficacy studies and toxicology analysis. Correlation of binding activity and relatedness of the different 5T4 ectodomains was also used to further describe the epitope bound by each antibody. Binding assays were performed using 5T4 ectodomains from various species fused to human IgG1 Fc. To assay binding of anti-5T4 antibodies, 5T4 ectodomain/Fc fusion proteins were transiently transfected into COS-1 cells, and ELISA assays were performed. Non-relevant human IgG4 and IgG1 antibodies were used as controls.

[4] = molecular target: T3, rat 5T4 ectodomain/Fc fusion protein; assay: as above; assay type: binding; design: key: +: binding; −: no binding; +/−: partial binding
Procedure: as §1

[5] = tested on: black-tailed marmoset 5T4 ectodomain/Fc fusion protein; assay: as above; assay type: binding; design: key: +: binding; −: no binding; +/−: partial binding
Chain of black-tailed marmoset 5T4 ectodomain/Fc fusion protein (as listed by the source): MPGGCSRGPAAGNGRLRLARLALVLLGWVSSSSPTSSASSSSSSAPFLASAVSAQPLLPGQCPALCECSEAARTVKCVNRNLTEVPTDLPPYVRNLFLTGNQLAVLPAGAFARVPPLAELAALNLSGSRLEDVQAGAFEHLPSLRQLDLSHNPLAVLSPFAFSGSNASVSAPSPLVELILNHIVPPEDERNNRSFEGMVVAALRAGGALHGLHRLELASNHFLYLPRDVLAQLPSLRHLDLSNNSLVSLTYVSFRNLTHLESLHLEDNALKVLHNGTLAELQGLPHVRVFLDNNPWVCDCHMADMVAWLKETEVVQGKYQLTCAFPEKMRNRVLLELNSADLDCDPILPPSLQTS
Procedure: as §1

[6] = first antibody chimeric A2, 19 seconds after injection of second antibody
[7] = first antibody chimeric A2, 37.5 seconds after injection of second antibody
[8] = first antibody chimeric A2, 75 seconds after injection of second antibody
[9] = first antibody chimeric A2, 300 seconds after injection of second antibody
[10] = first antibody chimeric A2, 600 seconds after injection of second antibody
[11] = first antibody chimeric A3, 19 seconds after injection of second antibody
[12] = first antibody chimeric A3, 37.5 seconds after injection of second antibody
[13] = first antibody chimeric A3, 75 seconds after injection of second antibody
[14] = first antibody chimeric A3, 150 seconds after injection of second antibody
[15] = first antibody chimeric A3, 300 seconds after injection of second antibody
[16] = first antibody chimeric A3, 600 seconds after injection of second antibody
[17] = first antibody chimeric A1, 19 seconds after injection of second antibody
[18] = first antibody chimeric A1, 37.5 seconds after injection of second antibody
[19] = first antibody chimeric A1, 75 seconds after injection of second antibody
[20] = first antibody chimeric A1, 150 seconds after injection of second antibody
[21] = first antibody chimeric A1, 300 seconds after injection of second antibody
[22] = first antibody chimeric A1, 600 seconds after injection of second antibody

| KA (human 5T4 antigen [1]) | ka (human 5T4 antigen [1]) | kd (human 5T4 antigen [1]) | Percentage of Second Antibody Bound Following Saturation With First Antibody (human 5T4 antigen [2]; [6]) | Percentage of Second Antibody Bound Following Saturation With First Antibody (human 5T4 antigen [2]; [7]) | Percentage of Second Antibody Bound Following Saturation With First Antibody (human 5T4 antigen [2]; [8]) | Percentage of Second Antibody Bound Following Saturation With First Antibody (human 5T4 antigen [2]; [9]) | Percentage of Second Antibody Bound Following Saturation With First Antibody (human 5T4 antigen [2]; [10]) | Percentage of Second Antibody Bound Following Saturation With First Antibody (human 5T4 antigen [2]; [11]) | Percentage of Second Antibody Bound Following Saturation With First Antibody (human 5T4 antigen [2]; [12]) | Percentage of Second Antibody Bound Following Saturation With First Antibody (human 5T4 antigen [2]; [13]) | Percentage of Second Antibody Bound Following Saturation With First Antibody (human 5T4 antigen [2]; [14]) | Percentage of Second Antibody Bound Following Saturation With First Antibody (human 5T4 antigen [2]; [15]) | Percentage of Second Antibody Bound Following Saturation With First Antibody (human 5T4 antigen [2]; [16]) | cross-reactivity (binding class) [3] | cross-reactivity (binding class) [4] | Percentage of Second Antibody Bound Following Saturation With First Antibody (human 5T4 antigen [2]; [17]) | Percentage of Second Antibody Bound Following Saturation With First Antibody (human 5T4 antigen [2]; [18]) | Percentage of Second Antibody Bound Following Saturation With First Antibody (human 5T4 antigen [2]; [19]) | Percentage of Second Antibody Bound Following Saturation With First Antibody (human 5T4 antigen [2]; [20]) | Molecule | further results |
| --- | --- | --- | --- | --- | --- | --- | --- | --- | --- | --- | --- | --- | --- | --- | --- | --- | --- | --- | --- | --- | --- |
| 2.3e+09 M⁻¹ | 150000 M⁻¹ s⁻¹ | 6.7e-05 s⁻¹ | 92.5% | 90.6% | 91.4% | 93.9% | 95.5% | 98.8% | 96.5% | 97.0% | 98.0% | 98.8% | 99.6% | − | +/− |  |  |  |  | chimeric A1: chimeric A1 antibody: murine A1 variable regions, human IgG4 heavy chain and human kappa light chain constant regions (antibody, V domains shown) VH: QIQLVQSGPELKKPGETVKISCKASGYTFTNFGMNWVKQGPGEGLKWMGWINTNTGEPRYAEEFKGRCAFSLETTASTAYLQINNLKNEDTATYFCARDWDGAYFFDYWGQGTTLTVSS VL: SIVMTQTPKFLLVSAGDRVTITCKASQSVSNDVAWYQQKPGQSPKLLINFATNRYTGVPNRFTGSGYGTDFTFTISTVQAEDLALYFCQQDYSSPWTFGGGTKLEIK |  |
| 5.7e+08 M⁻¹ | 140000 M⁻¹ s⁻¹ | 0.00025 s⁻¹ |  |  |  |  |  | 89.2% | 88.4% | 89.8% | 91.5% | 92.9% | 94.3% | − | − | 102.9% | 93.5% | 90.1% | 89.0% | chimeric A2: chimeric A2 antibody: murine A2 variable regions, human IgG4 heavy chain and human kappa light chain constant regions (antibody, V domains shown) VH: QVQLQQSRPELVKPGASVKMSCKASGYTFTDYVISWVKQRTGQGLEWIGEIYPGSNSIYYNEKFKGRATLTADKSSSTAYMQLSSLTSEDSAVYFCAMGGNYGFDYWGQGTTLTVSS VL: QIVLTQSPAIMSASLGERVTLTCTASSSVNSNYLHWYQQKPGSSPKLWIYSTSNLASGVPARFSGSGSGTSYSLTISSMEAEDAATYYCHQYHRSPLTFGAGTKLELK | Percentage of Second Antibody Bound Following Saturation With First Antibody (human 5T4 antigen [2]; [21]): 88.9%; Percentage of Second Antibody Bound Following Saturation With First Antibody (human 5T4 antigen [2]; [22]): 89.1% |
|  |  |  | 92.2% | 88.6% | 89.5% | 93.4% | 94.6% |  |  |  |  |  |  | − | − | 82.1% | 82.0% | 84.5% | 87.8% | chimeric A3: chimeric A3 antibody: murine A3 variable regions, human IgG4 heavy chain and human kappa light chain constant regions (antibody, V domains shown) VH: EVQLVESGGGLVQPKGSLKLSCAASGFTFNTYAMNWVRQAPGKGLEWVARIRSKSNNYATYYADSVKDRFTISRDDSQSMLYLQMNNLKTEDTAMYCCVRQWDYDVRAMNYWGQGTSVTVSS VL: DIVMTQSHIFMSTSVGDRVSITCKASQDVDTAVAWYQQKPGQSPKLLIYWASTRLTGVPDRFTGSGSGTDFTLTISNVQSEDLADYFCQQYSSYPYTFGGGTKLEIK | KA (1/M) (human 5T4 antigen [1]): ˜5.4 × 10^9 1/M; ka (1/Ms) (human 5T4 antigen [1]): ˜5.4 × 10^4 1/Ms; kd (1/s) (human 5T4 antigen [1]): ˜1.0 × 10^−5 1/s; Percentage of Second Antibody Bound Following Saturation With First Antibody (human 5T4 antigen [2]; [21]): 90.8%; Percentage of Second Antibody Bound Following Saturation With First Antibody (human 5T4 antigen [2]; [22]): 92.8%; Percentage of Second Antibody Bound Following Saturation With First Antibody (human 5T4 antigen [2]; first antibody chimeric A2, 150 seconds after injection of second antibody): 91.5%; cross-reactivity (binding class) [5]: − |
